Measurements published in patent US8637043B2, “Compositions useful as ligands for the formyl peptide receptor like 1 receptor and methods of use thereof” (Chemocentryx, Inc., priority 2001, dated 2014).
Ends that are not written are not given here.

Legend:
OVA-specific IgG = test: Adjuvant activity, anti-OVA antibodies in Rhesus monkeys (Example 16); format: in vivo; details: effectiveness as adjuvant
Description: First, 96-well U-bottom plastic dishes were coated overnight with 1 μg ovalbumin (OVA) in 100 μl PBS per well. The next day, the dishes were rinsed with PBS, blocked with PBS containing 5% fetal bovine serum (FBS), and rinsed with PBS again. Plasma samples from experimental animals (see below) were diluted 10^2- to 10^5-fold and added to the dishes for 2 hours, after which the dishes were again rinsed with PBS. The dishes were then incubated with biotinylated goat anti-monkey IgG detection antibodies, then rinsed with PBS and incubated with streptavidin-linked horseradish peroxidase (SA-HRP). After a final rinsing with PBS, the HRP substrate 2,2′-Azinobis [3-ethylbenzothiazoline-6-sulfonic acid]-diammonium salt was added. Color development was measured with an ELISA plate reader at 405 nm, and optical density (OD) units were converted to arbitrary “antibody units,” where a unit is defined as the inverse of the plasma dilution that produces 50% of the maximum response from a standard curve obtained by serial dilution of an ascites collected from OVA-injected mice and containing OVA-specific antibodies.
Since the SHAAYtide (SEQ ID NO:6) and the chemokines mC10 and vMCK-2 recruited APCs, including dendritic cells, to the site of injection, these polypeptides were tested for their ability to act as immunization adjuvants to augment the immune response to a co-injected foreign antigen. […]

pariental L1.2 cells = test: Migration of parental L1.2 cells; format: cell-based, murine
Description: Migration assays were performed on monocytes and neutrophils. Human monocytes and neutrophils (prepared as in Exampe 2) were harvested and resuspended in chemotaxis medium (CM). The CM consisted of Hank's buffered salt solution (Gibco, Mass.) containing CaCl2 (1 mM) and MgSO4 (1 mM) with added 0.1% BSA (Sigma, St. Louis, Mo.). The assays were performed in 96-well ChemoTx® microplates (Neuroprobe, Mass.). Leukotactin, MlP-1α and chemokines (CKβ8(1-99), CKβ8(25-99), CKβ8-1(1-116) or CKβ8-1(25-116), prepared as in Example 1) were added to the lower wells (final volume 29 μL), and 20 μL of cell suspension (5×10^6 cells/mL for monocytes; 2.5×10^6 cells/mL for neutrophils) added to the polycarbonate filters (5 μm pore size for monocytes; 3 μm pore size for neutrophils). After incubation for 90 min (37° C., 100% humidity, 5% CO2), cells were removed from the upper surface of the filter by scraping. Cells that migrated into the lower chamber were quantified using the Quant cell proliferation assay kit (Molecular Probes, Oreg.).
The ability of CKβ8-1 (25-116) to elicit the migration of the FPRL1 expressing cells was examined. Test conditions were as in Example 5.

native L1.2 cells = test: Calcium flux in parental L1.2 cells or cells transfected with other chemokine receptors; format: cell-based, murine; details: pariental cells or cells transfected with other chemokine receptors
Description: The functional activities of CKβ8-1 (25-116) were investigated in human FPRL1-L1.2 transfectants and in native L1.2 cells. Stable expression of formyl peptide-like receptor 1 (FPRL1) in L.1.2 cell was obtained as follows. Full length cDNA encoding FPRL1 was cloned, using the polymerase chain reaction (PCR), from genomic DNA isolated from undifferentiated HL-60 cells. The polymerase chain reaction product was cloned into pcDNA3.1 (Invitrogen, Carlsbad, Calif.) using standard molecular cloning procedures and completely sequenced to confirm identity. Twenty micrograms of the FPRL1/pcDNA3.1 construct were linearized by digestion with Bsm1 (New England Biolabs, Beverly, Mass.) and used to transfect the murine B cell line L1.2 as follows. Twenty five million cells were washed twice and resuspended in 0.8 ml of PBS. The cells were incubated for 10 min at room temperature with the linearized FPRL/pcDNA3.1 construct DNA and transferred to a 0.4-cm cuvette, and a single electroporation pulse was applied at 250 V, 960 μF. Electroporated cells were incubated for 10 min at room temperature and transferred to culture at 37° C. in RPMI supplemented with 10% FCS. […] After 2-3 weeks under drug selection, stable geneticin-resistant FPLR1 expressing cells were assessed for their ability to mobilize Ca^++ in response to SHAAGtide or CKbeta 8-1 at concentrations of 1 to 1000 nM. […]

**Q.** For MLWRRKIGPQMTLSHAAY [SEQ ID NO: 6], which “Notes: adjuvant” value (OVA-specific IgG) is on record?
**A.** effective

B1: CKβ8-1(25-116): novel NH2-terminal truncated form of CKβ8-1, SEQ ID NO: 16, human recombinant chemokine (protein, listed as Homo sapiens)
chain: MLWRRKIGPQMTLSHAAGFHATSADCCISYTPRSIPCSLLESYFETNSECSKPGVIFLTKKGRRFCANPSDKQVQVCMRMLKLDTRIKTRKN
**Q.** For B1, which “migration of parental L1.2 cells” value (pariental L1.2 cells) is on record?
**A.** did not migrate

**Q.** And the induced calcium release (native L1.2 cells)?
**A.** not observed
